Test results as given in PMC6450391 (Nature immunology, 2019).

Molecular target: T1, 1CARD-SUMO (caspase-1 CARD with carboxy-terminal SUMO, after TEV cleavage of MBP-1CARD-SUMO) (human, UniProt P29466 1-91)
T1 sequence (looked up): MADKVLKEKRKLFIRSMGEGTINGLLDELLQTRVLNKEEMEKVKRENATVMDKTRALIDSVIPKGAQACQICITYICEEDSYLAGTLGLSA
Test: cross-linking

B1: SERPINB1, purified, amino-terminal SUMO cleaved (natural protein, human, UniProt P30740 1-379, looked up)
chain: MEQLSSANTRFALDLFLALSENNPAGNIFISPFSISSAMAMVFLGTRGNTAAQLSKTFHFNTVEEVHSRFQSLNADINKRGASYILKLANRLYGEKTYNFLPEFLVSTQKTYGADLASVDFQHASEDARKTINQWVKGQTEGKIPELLASGMVDNMTKLVLVNAIYFKGNWKDKFMKEATTNAPFRLNKKDRKTVKMMYQKKKFAYGYIEDLKCRVLELPYQGEELSMVILLPDDIEDESTGLKKIEEQLTLEKLHEWTKPENLDFIEVNVSLPRFKLEESYTLNSDLARLGVQDLFNSSKADLSGMSGARDIFISKIVHKSFVEVNEEGTEAAAATAGIATFCMLMPEENFTADHPFLFFIRHNSSGSILFLGRFSSP
fold decrease in 1CARD oligomer with SERPINB1 against without SERPINB1: 4.18 fold
fold increase in 1CARD monomer with SERPINB1 against without SERPINB1: 7.48 fold
